Measurements reported in patent publication US20210322564A1 (ADC THERAPEUTICS, published 2021).

Target: T1, CD19 (human, UniProt P15391 20-556)
T1 sequence (looked up): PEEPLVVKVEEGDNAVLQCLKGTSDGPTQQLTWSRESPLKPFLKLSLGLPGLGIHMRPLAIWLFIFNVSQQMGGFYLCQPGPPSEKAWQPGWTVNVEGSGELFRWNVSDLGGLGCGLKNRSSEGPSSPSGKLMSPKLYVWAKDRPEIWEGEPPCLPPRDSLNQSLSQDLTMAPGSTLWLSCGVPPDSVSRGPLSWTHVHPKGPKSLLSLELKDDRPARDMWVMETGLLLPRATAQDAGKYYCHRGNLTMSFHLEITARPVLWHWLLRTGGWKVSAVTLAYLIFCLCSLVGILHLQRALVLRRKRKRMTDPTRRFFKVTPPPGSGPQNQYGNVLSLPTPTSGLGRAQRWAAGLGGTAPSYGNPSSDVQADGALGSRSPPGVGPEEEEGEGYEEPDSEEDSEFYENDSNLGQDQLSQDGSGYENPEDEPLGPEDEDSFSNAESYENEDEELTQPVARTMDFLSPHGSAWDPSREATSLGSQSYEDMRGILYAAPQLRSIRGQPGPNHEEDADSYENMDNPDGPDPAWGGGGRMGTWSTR
Test: cell-based or functional assay

IC50, MTT proliferation assay, 96 h exposure, median over 48 B-cell lymphoma cell lines: 4 pM
B1: ADCx19 (antibody, V domains shown)
VH: QVQLVQPGAEVVKPGASVKLSCKTSGYTFTSNWMHWVKQAPGQGLEWIGEIDPSDSYTNYNQNFQGKAKLTVDKSTSTAYMEVSSLRSDDTAVYYCARGSNPYYYAMDYWGQGTSVTVS
VL: EIVLTQSPAIMSASPGERVTMTCSASSGVNYMHWYQQKPGTSPRRWIYDTSKLASGVPARFSGSGSGTSYSLTISSMEPEDAATYYCHQRGSYTFGGGTKLEIK
modifications: pyrrolobenzodiazepine (PBD) dimer warhead attached via a cleavable linker, DAR 2+/-0.3; attachment residues not stated
